Columns and labels:
[1] = target: αvβ6 integrin on DX3puroβ6 cells (human) (UniProt P06756); assay: cell binding of the radiotracer, DX3puroβ6 cells (FIG. 27)
[2] = target: αvβ6 integrin (purified, captured on the ELISA plate) (UniProt P06756); assay: ELISA (format not detailed at this place); not bearing K(IPA)E
[3] = target: αvβ6 integrin on DX3puroβ6 cells (human) (UniProt P06756); assay: internalization of the radiotracer, DX3puroβ6 cells (FIG. 27)

αvβ6 integrin on DX3puroβ6 cells (human), sequence (P06756 31-1048 limits assumed, chain 1 of 2): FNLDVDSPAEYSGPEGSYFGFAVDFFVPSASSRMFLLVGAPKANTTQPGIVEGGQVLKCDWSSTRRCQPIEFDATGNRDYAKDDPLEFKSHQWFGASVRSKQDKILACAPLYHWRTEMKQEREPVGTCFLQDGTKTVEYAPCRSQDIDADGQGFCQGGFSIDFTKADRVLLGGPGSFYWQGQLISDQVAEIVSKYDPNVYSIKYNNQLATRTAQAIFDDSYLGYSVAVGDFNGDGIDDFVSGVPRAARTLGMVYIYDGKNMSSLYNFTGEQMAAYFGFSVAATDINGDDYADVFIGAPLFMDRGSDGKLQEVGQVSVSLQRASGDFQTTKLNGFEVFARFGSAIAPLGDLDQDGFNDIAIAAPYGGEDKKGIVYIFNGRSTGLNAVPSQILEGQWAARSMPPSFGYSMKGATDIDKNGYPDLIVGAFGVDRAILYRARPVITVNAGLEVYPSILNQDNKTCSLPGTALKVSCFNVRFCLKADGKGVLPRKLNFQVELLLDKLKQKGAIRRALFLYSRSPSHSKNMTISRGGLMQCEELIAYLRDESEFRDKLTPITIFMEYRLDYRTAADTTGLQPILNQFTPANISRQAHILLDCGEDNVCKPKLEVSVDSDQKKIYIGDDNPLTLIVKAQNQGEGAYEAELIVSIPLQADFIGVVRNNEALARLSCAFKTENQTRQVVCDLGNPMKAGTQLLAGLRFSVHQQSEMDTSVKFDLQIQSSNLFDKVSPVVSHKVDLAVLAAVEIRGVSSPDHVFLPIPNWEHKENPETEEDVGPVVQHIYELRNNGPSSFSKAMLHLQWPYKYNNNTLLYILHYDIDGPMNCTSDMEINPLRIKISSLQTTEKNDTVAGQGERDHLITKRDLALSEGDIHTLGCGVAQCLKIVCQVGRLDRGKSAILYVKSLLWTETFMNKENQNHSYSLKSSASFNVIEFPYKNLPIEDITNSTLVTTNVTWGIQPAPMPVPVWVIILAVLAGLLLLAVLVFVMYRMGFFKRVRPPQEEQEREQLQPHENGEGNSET
αvβ6 integrin on DX3puroβ6 cells (human), sequence (P18564 22-788 limits assumed, chain 2 of 2, further chain): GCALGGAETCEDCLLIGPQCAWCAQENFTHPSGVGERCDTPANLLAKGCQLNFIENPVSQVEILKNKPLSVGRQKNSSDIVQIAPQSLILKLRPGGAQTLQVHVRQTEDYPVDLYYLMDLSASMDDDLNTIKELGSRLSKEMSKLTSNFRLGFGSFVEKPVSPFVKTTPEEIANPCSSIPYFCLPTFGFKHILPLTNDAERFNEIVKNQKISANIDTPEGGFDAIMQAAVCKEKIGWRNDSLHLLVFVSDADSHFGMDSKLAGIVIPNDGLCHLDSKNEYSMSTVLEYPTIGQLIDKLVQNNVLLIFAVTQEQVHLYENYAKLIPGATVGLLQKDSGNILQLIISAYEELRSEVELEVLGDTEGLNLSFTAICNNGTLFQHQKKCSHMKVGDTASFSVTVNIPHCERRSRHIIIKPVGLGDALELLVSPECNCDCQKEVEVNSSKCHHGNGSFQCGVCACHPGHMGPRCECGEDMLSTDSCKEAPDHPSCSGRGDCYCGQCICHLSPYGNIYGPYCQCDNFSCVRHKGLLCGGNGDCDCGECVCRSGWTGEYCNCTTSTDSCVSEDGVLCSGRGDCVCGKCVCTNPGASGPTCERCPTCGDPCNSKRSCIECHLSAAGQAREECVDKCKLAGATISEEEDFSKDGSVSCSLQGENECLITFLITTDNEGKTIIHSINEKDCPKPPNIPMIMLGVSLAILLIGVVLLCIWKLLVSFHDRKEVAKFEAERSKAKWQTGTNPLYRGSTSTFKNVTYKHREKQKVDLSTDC
αvβ6 integrin (purified, captured on the ELISA plate), sequence (P06756 31-992, chain 1 of 2): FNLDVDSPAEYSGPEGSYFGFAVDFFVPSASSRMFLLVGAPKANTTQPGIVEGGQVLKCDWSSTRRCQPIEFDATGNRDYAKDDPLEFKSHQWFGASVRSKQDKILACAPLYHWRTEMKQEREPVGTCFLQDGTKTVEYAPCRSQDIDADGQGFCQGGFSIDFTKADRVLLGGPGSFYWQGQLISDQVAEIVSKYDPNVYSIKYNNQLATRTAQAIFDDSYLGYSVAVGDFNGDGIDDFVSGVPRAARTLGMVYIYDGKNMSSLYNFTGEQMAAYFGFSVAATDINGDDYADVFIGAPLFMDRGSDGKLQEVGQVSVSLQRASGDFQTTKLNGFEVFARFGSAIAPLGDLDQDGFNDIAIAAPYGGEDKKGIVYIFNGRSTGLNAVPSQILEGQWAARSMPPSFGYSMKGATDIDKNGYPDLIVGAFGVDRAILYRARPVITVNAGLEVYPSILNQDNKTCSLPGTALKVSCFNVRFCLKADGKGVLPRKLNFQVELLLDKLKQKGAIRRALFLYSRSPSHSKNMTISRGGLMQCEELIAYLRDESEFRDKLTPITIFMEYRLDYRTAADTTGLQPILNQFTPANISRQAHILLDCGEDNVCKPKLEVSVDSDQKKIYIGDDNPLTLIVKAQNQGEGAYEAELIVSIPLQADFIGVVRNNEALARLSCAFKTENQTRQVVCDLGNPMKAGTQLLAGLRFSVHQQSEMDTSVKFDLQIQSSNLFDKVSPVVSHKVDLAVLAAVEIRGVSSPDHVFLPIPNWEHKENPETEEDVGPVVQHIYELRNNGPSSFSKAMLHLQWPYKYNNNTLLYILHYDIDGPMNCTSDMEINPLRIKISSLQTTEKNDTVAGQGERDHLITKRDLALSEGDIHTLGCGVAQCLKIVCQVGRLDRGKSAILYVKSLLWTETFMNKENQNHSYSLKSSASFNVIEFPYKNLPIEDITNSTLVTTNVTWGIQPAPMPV
αvβ6 integrin (purified, captured on the ELISA plate), sequence (P18564 22-707, chain 2 of 2, further chain): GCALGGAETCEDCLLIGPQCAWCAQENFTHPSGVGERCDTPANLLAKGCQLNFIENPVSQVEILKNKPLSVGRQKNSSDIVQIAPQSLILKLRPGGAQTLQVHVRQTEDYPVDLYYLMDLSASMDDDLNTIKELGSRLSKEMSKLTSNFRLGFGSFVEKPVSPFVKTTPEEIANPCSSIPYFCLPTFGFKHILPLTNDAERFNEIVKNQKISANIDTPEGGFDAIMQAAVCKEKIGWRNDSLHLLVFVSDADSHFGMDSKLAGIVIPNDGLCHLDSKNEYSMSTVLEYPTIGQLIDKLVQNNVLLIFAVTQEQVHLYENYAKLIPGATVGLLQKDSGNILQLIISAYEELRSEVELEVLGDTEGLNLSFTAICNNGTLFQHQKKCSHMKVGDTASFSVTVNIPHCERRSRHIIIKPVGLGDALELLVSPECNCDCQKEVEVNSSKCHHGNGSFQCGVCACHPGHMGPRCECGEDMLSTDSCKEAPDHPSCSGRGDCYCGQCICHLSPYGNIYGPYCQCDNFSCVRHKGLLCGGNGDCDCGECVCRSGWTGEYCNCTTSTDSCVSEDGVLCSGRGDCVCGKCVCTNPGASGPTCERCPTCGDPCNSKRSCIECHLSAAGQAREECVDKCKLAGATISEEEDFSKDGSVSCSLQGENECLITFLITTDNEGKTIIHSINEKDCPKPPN

Substance: PEGylated A20FMDV2 not bearing K(IPA)E (peptide)
- bound (%) [1]: 52%
- IC50 [2]: 2 nM
- internalized (% of bound radioactivity) [3]: 44%
